Biological target: δ-PKC in isolated rat hearts (rat), P09215
Assay: cell-based or functional assay

Chain of δ-PKC in isolated rat hearts (rat), P09215 (P09215 whole entry, stated change not applied): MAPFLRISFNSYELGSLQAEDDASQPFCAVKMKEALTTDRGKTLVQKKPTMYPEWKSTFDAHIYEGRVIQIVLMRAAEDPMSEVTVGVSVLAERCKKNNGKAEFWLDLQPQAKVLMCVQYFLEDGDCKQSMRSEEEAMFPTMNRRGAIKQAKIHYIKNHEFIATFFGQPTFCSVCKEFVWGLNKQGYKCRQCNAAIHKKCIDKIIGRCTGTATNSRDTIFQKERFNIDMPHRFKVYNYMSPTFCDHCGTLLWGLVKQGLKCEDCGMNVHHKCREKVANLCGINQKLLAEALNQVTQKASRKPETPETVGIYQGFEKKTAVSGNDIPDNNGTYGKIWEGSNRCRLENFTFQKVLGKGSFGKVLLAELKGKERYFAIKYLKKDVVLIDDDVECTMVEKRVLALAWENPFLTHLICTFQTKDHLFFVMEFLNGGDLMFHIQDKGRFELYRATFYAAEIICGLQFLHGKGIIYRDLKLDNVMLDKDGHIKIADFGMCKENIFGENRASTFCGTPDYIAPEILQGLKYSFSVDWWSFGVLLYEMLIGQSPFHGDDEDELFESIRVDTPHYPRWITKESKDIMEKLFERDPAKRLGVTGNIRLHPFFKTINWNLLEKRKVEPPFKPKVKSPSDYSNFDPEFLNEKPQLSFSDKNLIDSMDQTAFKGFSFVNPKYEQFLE

B1: annexin V-derived peptide pAnxV (annexin V residues 157-164) conjugated to TAT47-57 carrier peptide (peptide)
peptide: LQANRDPD
chain: YGKKRRQRRR
modifications: not checked
- creatine phosphokinase (CPK) release in the heart perfusate during reperfusion: > 50 % reduction
- infarct size after ischemia/reperfusion in isolated rat hearts: 70 % reduction
